{
  "source": "paper PMC9889962",
  "about": "(Antibody Therapeutics, 2023)",
  "key": {"[1]": {"target": "SARS-CoV-2 Alpha variant B.1.1.7, S1 subunit (SARS-CoV-2)", "assay": "SPR", "conditions": "both partners purified"}, "[2]": {"target": "SARS-CoV-2 Omicron B.1.1.529 RBD only (SARS-CoV-2, UniProt P0DTC2)", "assay": "SPR", "conditions": "both partners purified"}},
  "data": [
    {"binder": "LiVE-Longer YTE chimera (ACE-2 LVE/STR-YTE fusion protein) (Fc fusion) QSTIEEQAKLFLDKFNVEAEDLFYQSSLASWNYNTNITEENVQNMNNAGDKWSAFLKEQSTLAQMYPLQEIQELTVKLQLQALQQNGSSVLSEDKSKRLNTILNTMSTIYSTGKVCNPDNPQECLLLEPGLNEIMANSLDYNERLWAWESWRSEVGKQLRPLYEEYVVLKNEMARANHYEDYGDYWRGDYEVNGVDGYDYSRGQLIEDVEHTFEEIKPLYEHLHAYVRAKLMNAYPSYISPIGCLPAHLLGDMWGRFWTNLYSLTVPFGQKPNIDVTDAMVDQAWDAQRIFKEAEKFFVSVGLPNMTQGFWENSMLTDPGNVQKAVCHPTAWDLGKGDFRILMCTKVTMDDFLTAHHEMGHIQYDMAYAAQPFLLRNGANEGFHEAVGEIMSLSAATPKHLKSIGLLSPDFQEDNETEINFLLKQALTIVGTLPFTYMLEKWRWMVFKGEIPKDQWMKKWWEMKREIVGVVEPVPHDETYCDPASLFHVSNDYSFIRYYTRTLYQFQFQEALCQAAKHEGPLHKCDISNSTEAGQKLFNMLRLGKSEPWTLALENVVGAKNMNVRPLLNYFEPLFTWLKDQNKNSFVGWSTDWSPYADQSIKVRISLKSALGDKAYEWNDNEMYLFRSSVAYAMRQYFLKVKNQMILFGEEDVRVANLKPRISFNFFVTAPKNVSDIIPRTEVEKAIRMSRSRINDAFRLNDNSLEFLGIQPTLGPPNQPPVS", "values": [
      {"measurement": "Kd", "setting": "[1]", "result": 0.093, "unit": "nM"},
      {"measurement": "Kd", "setting": "[2]", "result": 0.402, "unit": "nM"}
    ]}
  ]
}
